Assay results published in patent US20130225493A1.

Target: FGFR3-IIIc stably expressed on FDCP cells, P22607
Experiment: cell-based or functional assay

Sequence of FGFR3-IIIc stably expressed on FDCP cells, P22607 (P22607 23-806): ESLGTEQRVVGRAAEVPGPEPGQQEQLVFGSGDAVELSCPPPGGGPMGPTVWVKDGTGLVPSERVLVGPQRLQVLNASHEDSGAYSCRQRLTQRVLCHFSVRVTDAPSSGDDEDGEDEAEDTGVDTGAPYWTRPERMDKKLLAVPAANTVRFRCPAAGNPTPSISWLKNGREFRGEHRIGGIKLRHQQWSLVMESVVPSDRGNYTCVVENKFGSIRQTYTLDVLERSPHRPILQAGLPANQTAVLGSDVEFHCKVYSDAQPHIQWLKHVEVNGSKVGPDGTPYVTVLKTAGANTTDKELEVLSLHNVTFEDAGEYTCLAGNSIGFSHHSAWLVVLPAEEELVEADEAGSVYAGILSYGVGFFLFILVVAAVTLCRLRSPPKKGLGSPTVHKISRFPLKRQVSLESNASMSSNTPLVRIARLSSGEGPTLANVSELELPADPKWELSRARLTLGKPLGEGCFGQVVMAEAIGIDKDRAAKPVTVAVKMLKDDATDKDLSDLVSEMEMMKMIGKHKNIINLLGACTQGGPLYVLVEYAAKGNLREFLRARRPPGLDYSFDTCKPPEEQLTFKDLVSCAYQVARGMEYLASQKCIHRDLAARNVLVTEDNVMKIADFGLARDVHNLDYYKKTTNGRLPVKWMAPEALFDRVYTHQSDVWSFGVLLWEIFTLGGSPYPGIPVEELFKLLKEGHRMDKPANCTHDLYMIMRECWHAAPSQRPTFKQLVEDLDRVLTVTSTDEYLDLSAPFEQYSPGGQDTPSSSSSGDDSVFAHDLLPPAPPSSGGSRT

Row | Binder | EC50 scores of FGF ligands in cell proliferation of FDCPR3 [ng/mL]
1 | FGF-18^Δ37, O76093 38-207 (ligand, here or on the partner: biotinylated in the immobilized receptor assays (sites not given)) MENQTRARDDVSRKQLRLYQLYSRTSGKHIQVLGRRISARGEDGDKYAQLLVETDTFGSQVRIKGKETEFYLCMNRKGKLVGKPDGTSKECVFIEKVLENNYTALMSAKYSGWYVGFTKKGRPRKGPKTRENQQDVHFMKRYPKGQPELQKPFKYTTVTKRSRRIRPTHPA | 3.14
2 | FGF-18 (recombinant wild type, mature form without the signal peptide), O76093 29-207 (ligand, here or on the partner: biotinylated in the immobilized receptor assays (sites not given)) MENVDFRIHVENQTRARDDVSRKQLRLYQLYSRTSGKHIQVLGRRISARGEDGDKYAQLLVETDTFGSQVRIKGKETEFYLCMNRKGKLVGKPDGTSKECVFIEKVLENNYTALMSAKYSGWYVGFTKKGRPRKGPKTRENQQDVHFMKRYPKGQPELQKPFKYTTVTKRSRRIRPTHPA | 15.4

Results, then the binder that gave them:

Row | EC50 scores of FGF ligands in cell proliferation of FDCPR3 [ng/mL] | Binder
3 | 3.97 | FGF-18^Δ51, O76093 52-207 (ligand, here or on the partner: biotinylated in the immobilized receptor assays (sites not given)) MLRLYQLYSRTSGKHIQVLGRRISARGEDGDKYAQLLVETDTFGSQVRIKGKETEFYLCMNRKGKLVGKPDGTSKECVFIEKVLENNYTALMSAKYSGWYVGFTKKGRPRKGPKTRENQQDVHFMKRYPKGQPELQKPFKYTTVTKRSRRIRPTHPA
4 | 5.44 | FGF-18^Δ45, O76093 46-207 (ligand, here or on the partner: biotinylated in the immobilized receptor assays (sites not given)) MDVSRKQLRLYQLYSRTSGKHIQVLGRRISARGEDGDKYAQLLVETDTFGSQVRIKGKETEFYLCMNRKGKLVGKPDGTSKECVFIEKVLENNYTALMSAKYSGWYVGFTKKGRPRKGPKTRENQQDVHFMKRYPKGQPELQKPFKYTTVTKRSRRIRPTHPA
